Laboratory results as given in patent US20200085917A1 (UNIVERSITY OF PITTSBURGH OF THE COMMONWEALTH SYSTEM OF …, published 2020).

B1: Iscu_IPI:IPI00110578.1 (other, mouse, UniProt Q9D7P6 36-168, looked up)
chain: YHKKVVDHYENPRNVGSLDKTSKNVGTGLVGAPACGDVMKLQIQVDEKGKIVDARFKTFGCGSAIASSSLATEWVKGKTVEEALTIKNTDIAKELCLPPVKLHCSMLAEDAIKAALADYKLKQESKKEEPEKQ
B2: Chchd4_IPI:IPI00124389.1 (other, mouse, UniProt Q8VEA4 1-139, looked up)
chain: MSYCRQEGKDRIIFVTKEDHETPSSAELVADDPNDPYEEHGLILPNGDINWNCPCLGGMASGPCGEQFKSAFSCFHYSTEDIKGSDCIDQFRAMQECMQKYPDLYPQDEEEEEEAKPVEPVEETADTKVSAAKEQGTSS
B3: Cisd3_IPI:IPI00345740.4 (other, mouse, UniProt B1AR13 1-137, looked up)
chain: MGFRRLSFPTDFIFLFPNHICLPALSKPYQRREISSWLARWFPKDPAKPVVAQKTPIRLELVAGKTYRWCVCGRSKNQPFCDGSHFFQRTGLSPLKFKAQETRTVALCTCKATQRPPYCDGTHKSEQVQKAEVGSPL
B4: Fabp5_IPI:IPI00114162.3 (other, mouse, UniProt Q05816 2-135, looked up)
chain: ASLKDLEGKWRLMESHGFEEYMKELGVGLALRKMAAMAKPDCIITCDGNNITVKTESTVKTTVFSCNLGEKFDETTADGRKTETVCTFQDGALVQHQQWDGKESTITRKLKDGKMIVECVMNNATCTRVYEKVQ
B5: Fahd1_IPI:IPI00468850.1 (other, mouse, UniProt Q8R0F8 25-221, looked up)
chain: ADHVKEMRSTVLSEPVLFLKPSTAYAPEGSPVLMPAYCRNLHHEVELGVLLGKRGEAIPEAAAMDYVAGYALCLDMTARDVQEECKKKGLPWTLAKSFTSSCPVSAFVPKEKIPDPHALRLWLKVNGELRQEGKTSSMIFSIPYIISYVSKIITLEEGDLILTGTPKGVGPIKENDEIEAGIDGVVSMRFKVKRSEY
B6: Hint2_IPI:IPI00133034.3 (other, mouse, UniProt Q9D0S9 18-163, looked up)
chain: LAAAGARGAQVRGNAGVSDGSEVAKAQKAAPGGASPTIFSRILDRSLPADILYEDQQCLVFRDVAPQAPVHFLVIPRKPIPRISQAEEDDQQLLGHLLLVAKKIAQAQGLKDGYRLVVNDGKMGAQSVYHLHIHVLGGRQLQWPPG
B7: Lyrm4_IPI:IPI00169804.1 (other, mouse, UniProt Q8K215 1-91, looked up)
chain: MAASSRAQVLDLYRAMMRESKHFSAYNYRMYAVRRIRDAFRENKNVKDPVEIQALVNKAKRDLEIIRRQVHIGQLYSTDKLIIENQEKPRT
B8: Lyrm7_IPI:IPI00117832.1 (other, mouse, UniProt Q9DA03 1-104, looked up)
chain: MGQPAKVLQLFKTLHRTRQQVFKNDKRALEAARVKINEEFKKHKNETSPEKIKEMMKLGSDVELLLRTAVIQGIHTDHDTLQLVPRKDLLTENVPYCDAPTQKQ
B9: Mrpl43_IPI:IPI00278781.1 (other, mouse, UniProt Q99N89 1-183, looked up)
chain: MTGRGTSSRFLTSVLHNGLGRYVQQLQRLSLSLSRDAPSSRGAREFVEREVTDFARRNPGVVVYVNPRPCAMPRIVAEYLNGAVREENVNSKSVEEIKSLVQKLADQSGLDVIRIRKPFHTDNPSIQGQWTPSPTNGLPSTGCGPENSGILLQLRCKHSKEPGALDRERDRIGSSFGFQAQAE
B10: Mrps33_IPI:IPI00135214.1 (other, mouse, UniProt Q9D2R8 2-106, looked up)
chain: SPLSEYALRMSRLSARIFGEVARSTDSKSMKVVSLFSEQPLAKKKETYDWYPNHNTYFALMGNLRFLGLYRDEHQDFKDEQRRLKKLRGKGKPRKGEGKRATKKK
B11: Ndufa11_IPI:IPI00318645.6 (other, mouse, UniProt Q9D8B4 1-141, looked up)
chain: MVKRFFESYHEVPDGTQCHRKTYITTALGGICGIIGSAYRVSLNPADSTLEAVARVGRYTFTAAAIGAMFGLTTCVSAQVREKPDDPLNYFIGGCAGGLTLGARTHSYGTAAMGCVYMGTAAALFKIGKLEGWELFPTPKV
B12: Rab15_IPI:IPI00170032.1 (other)
chain: MAKQYDVLFRLLLIGDSGVGKTCLLCRFTDNEFHSSHISTIGVDFKMKTIDVDGIKVRIQIWDTAGQERYQTITKQYYRRAQGIFLVYDISSERSYQHIMKWVSDVDEYAPEGVQKILIGNKADEEQKRQVGREQGQQLAKEYGMDFYETSACTNLNIKESFTRLTELVLQAHRKELDGLRTRASNELALAELEEDEGKPEGPANSSKTCWC
modifications: Natural C-terminal geranylgeranylation of the cysteines (CWC motif) in the endogenous protein is not carried by the letters.

These binders were tested against T1, GST alone (UniProt P08515 1-218 = GST) (assay: GST pull-down, LC-MS/MS).
T1 construct: Negative control of the pull-downs; also called control GST
T1 sequence (P08515 whole entry): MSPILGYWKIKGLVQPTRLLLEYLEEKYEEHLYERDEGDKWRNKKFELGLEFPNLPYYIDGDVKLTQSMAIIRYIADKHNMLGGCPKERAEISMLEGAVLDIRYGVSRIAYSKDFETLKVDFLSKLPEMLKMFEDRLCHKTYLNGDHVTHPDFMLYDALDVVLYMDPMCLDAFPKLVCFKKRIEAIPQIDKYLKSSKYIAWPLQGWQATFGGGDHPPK
Method: Extracts were spun at 14,000 r.p.m. at 4° C., and clarified supernatants were incubated with glutathione 4B Sepharose beads (GE Healthcare) at 4° C. overnight. The glutathione beads were then washed extensively with ice-cold TNE buffer, and bound proteins were subjected to SDS-PAGE followed by immunoblotting analysis. For the samples subjected to mass spectrometry, glutathione bead-bound proteins from equal amounts (600 μg) of mitochondria were further washed with high stringency RIPA buffer following TNE buffer wash to decrease nonspecific interaction. Proteins were then eluted from the glutathione beads in SDS sample buffer, separated by SDS-PAGE and stained with Coomassie. Proteins in the gel were digested with trypsin and analyzed by mass spectrometry (LC-MS/MS) at the Taplin Biological Mass Spectrometry Facility (Harvard Medical School, Boston, Mass.).

Binding result, no binding:
B1, B2, B3, B4, B5, B6, B7, B8, B9, B10, B11, B12
